{"source": "patent US20150079612A1", "binders": {"B1": {"name": "monoclonal antibody 61C6 (antibody, mouse IgG2b, kappa, V domains shown)", "VH": "QIQLVQSGPELKKPGETVTISCKASGYTLTNYGMNWVKQAPGKGLKWMGWINTNSGEPTYVEEFKGRFAFSLETSVSTVYLQISDLKHEDTATYFCARWGPHFNAYGWFAYWGQGTLVTVSA", "VL": "YIQMTQTASSLSASLGDRVTISCRASQDIWNYLNWYQQKPDGTIKLLIYYKSRLHSGVPSRFSGSGSGIDFSLTISNLEQEDFATYFCQQGHTLPWTFGGGSKLEIKR", "modifications": "biotinylated on primary amines with EZ-Link Sulfo-NHS-LC-Biotin (positions not stated)"}}, "key": {"Hemoglobin [1]": {"target": "Hemoglobin", "assay": "competitive ECL 5-FU assay, Bi-61C6 beads and TAG Plus 1-5C-5-FU-BSA, hemoglobin 10 mg/mL in plasma without 5-FU"}, "Hemoglobin [2]": {"target": "Hemoglobin", "assay": "competitive ECL 5-FU assay, Bi-61C6 beads and TAG Plus 1-5C-5-FU-BSA, hemoglobin 10 mg/mL in plasma with 75 ng/mL spiked 5-FU"}, "Hemoglobin [3]": {"target": "Hemoglobin", "assay": "competitive ECL 5-FU assay, Bi-61C6 beads and TAG Plus 1-5C-5-FU-BSA, hemoglobin 10 mg/mL in plasma with 1000 ng/mL spiked 5-FU"}}}
{"binder": "B1", "values": [{"measurement": "% Cross-React", "setting": "Hemoglobin [1]", "value": 0, "unit": "%"}, {"measurement": "% Cross-React", "setting": "Hemoglobin [2]", "value": 0, "unit": "%"}, {"measurement": "% Cross-React", "setting": "Hemoglobin [3]", "value": -0.1, "unit": "%"}]}
